Assay results from the DeepSol protein solubility set.

Assay: soluble on expression in E. coli; label from the status in PepcDB or PDB records

MGSDKIHHHHHHMNMAQVAVALAKLAGIRKALDLALNDDHKKAGRLPIQNFLIEEVGRYFTGAATQLSILKKELPDLFGDFVEMPVEPKTEMAKTSTEGAAQYRYARSQLEVLARDIDQIFELRANSELAPPLIAAATTRRVFISHGRAPDWREVQAYVEKDIGLPTLELAQEPNQGRTILAKLMEASGQCDSAVIVMTGDDLDAAGQARARENVIHEIGFFQGKYGLGRVCLLHEEGVSIPSNIHGLVYTPFPKGMVSACFGVLTRELKAFY
soluble on expression in E. coli: not soluble

MSLDGTVLVADDDRTIRTVLTQALTRAGCKVHATSSLTTLMRWVAEGKGDVVISDVVMPDGNGLEMLPKIAQDRPGLPVIVISAQNTIMTAIQAAEAEAYDYLPKPFDLPDLMKRTARALEQKRRTVSSEPREEGAERPDELPLVGRTPAMQALYRLVAKVMNTDLPVMISGESGTGKSLIARTIHDFSDRRTLPFISVTASDLMDLEGPARVLARVKGGTLLIDEIADIGDELQGRIVRMMDAPGDYVPRFMATSQGDPARAMEAGKLRRDLYYRLCGAPIHVPALRERVDDIPLLTEYFLAKAERDGAPKRWLGAGAAELFRIYSWPGNVRQLENAVRRLSLISRAEEISRTEVEQVLGNQPELEPALGGRGDSEKLSASVARHLQRYFDLHGNVLPPPGLYQRILREVEAPLIEIALEASGGNQAKCADLLGINRNTLRKKITDLDIEVTREGHHHHHH
soluble on expression in E. coli: soluble

MNLPPDALHENVYAFALARDQVESYCNQCLTSMAELKKCSACRRLAYCSQECQRADWKLHKVECKAIKTHNEVANDSIRLVMRIAGKLSRNEDGEIEAYYIPGVARNFQNLEHHPSSYDADEESFVKEYFQFAIAPHPDRDLIKLIFQKVSINSFVVGNSTGNPIGVGLCIKLSAANHSCKPLTRVCYRNRTAMLVPVSSELPSTLEGACHSYIDELMPRDMRRDTLKKKYKFLCQCDGCLDEDRNARMEAWTCGICVKGWMRNKENGQCELCGWTMSKDHFELCRTAEEAGIAARSRLANDAIPLETKRNLCEKLLDLFQDTLHDHNVHRIPVLRCLYICSLAAQNITAAAKTGGTLLSIMLVYQNTTDPAILFQKYQLAQLFCAAGAKTQATKLLQEIEEPLEKIYTPDSMICRNVYCMILKARNLS
soluble on expression in E. coli: not soluble

SLKIKNILLSGGSGKRLWPLSRSLYPKQFLKLFDHKSLFELSFKRNASLVDETLIVCNEKHYFLALEEIKNEIKNKSVGFLLESLSKNTANAIALSALMSDKEDLLIVTPSDHLIKDLQAYENAIKKAIDLAQKGFLVTFGVSIDKPNTEFGYIESPNGLDVKRFIEKPSLDKAIEFQKSGGFYFNSGMFVFQAGVFLDELKKHAPTILKGCERAFESLENAYFFEKKIARLSEKSMQDLEDMSIDIALMQQSHKIKMVELNAKWSDLGNFNALFEEAANEPKENVSLNQTPVFAKESENNLVFSHKVSALLGVENLAVIDTKDALLIAHKDKAKDLKALVNEVETNN
soluble on expression in E. coli: soluble

MLEDPGGRPRVYVDVREERSPVPSILESLGVQVIPKQLPMGDYLVSDSIIVERKTSSDFAKSLFDGRLFEQASRLAEHYETVFIIVEGPPVPRRYRGRERSLYAAMAALQLDYGIRLMNTMDPKGTALVIESLARLSTREGGQRIVIHKKPRLSDVREWQLYILQSFPGIGRRTAERILERFGSLERFFTASKAEISKVEGIGEKRAEEIKKILMTPYK
soluble on expression in E. coli: soluble

MQRYLWQQADGKRHVYDTARHRVQAGRPFTALCGETVTPQTERGDLTAGLWFDGECPVCTIALAKALGWPVREISDLAHRFDWSPALITRLAEVLHCSFGEVVELTGARMVDA
soluble on expression in E. coli: not soluble

MSLSAGDSMPGPKSTFRVGVWEDRNKKCRRTMEDTHAFLYNFVQTPALNDASAKDKPEGDDLVTSDMVESDNGYFAIFDGHAGTFAADWCGKKLHIILEDIIRKNPNALIPEVLDQAFTAADAQLEKLPLKNSGCTAAVAVLRWEDRASNDRSAIKPVKPEEPIEMDKANDGSSNEEATKATNSKGKGSGRQRVLYTANVGDARIILCRGGKALRLSYDHKGSDEVEGKRIAAAGGLILNNRVNGVLAVTRALGDAYMKKLVTGHPYTTETVIQPDSDEFIIIACDGIWDVCSDQEAVDLVRNVNDPISASKQLVDYALNRFSTDNLSCMVVRLDQNKEAAVEEGHHHHHH
soluble on expression in E. coli: soluble

MSLVGGFPHHPVVHHEGYPFAAAAAAAAAAAASRCSHEENPYFHGWLIGHPEMSPPDYSMALSYSPEYASGAAGLDHSHYGGVPPGAGPPGLGGPRPVKRRGTANRKERRRTQSINSAFAELRECIPNVPADTKLSKIKTLRLATSYIAYLMDLLAKDDQNGEAEAFKAEIKKTDVKEEKRKKELNEILKSTVSSNDKKTKGRTGWPQHVWALELKQ
soluble on expression in E. coli: not soluble

MAHHHHHHMTAAERLRRSRDNAVHHPKPSAATSSTISPALALSSSNSSPSANAAVPIEISPPPPNQGAVMIRYSKQQLLSLRPAAIEHVMRGRVVDHPPFLKIPESFAPLLSLPFAMEYVNVDAAMQLVEHRSYASRPASSPPTSVARTEDLDDEAQARLYTCPVCAQGRLHSCTAIQHILQRTSRYFMSTKLGAALMQPALVVESLLQLALVFDAKQSSLRLRMLAEQSPRVVHLVEEYLCGEGYHLPLPPVTAHEDWAALNAMLRFDAIRDNKTRVITDLSKHWKKRRTQFEQFVYFFAFRDARPVRPAKNIITKSAKPGMVAMLTGDVPAMVLLHRLGFFIPPDYYWKVFPFLRQALGEGTLSYDVVRHLGLYLSSAQPADMYNPVEVPIHA
soluble on expression in E. coli: soluble

MARGPGPLGMPRPDTVAMPKRGKRLKFRAHDACSGRVTVADYANSDPAVVRSGRVKKAIANAVQQEVKSLCGLEASQVPAEEALSGAGEPCDIIDSSDEMDAQEESIHERTVSRKKKSKRHKEELDGAGGEEYPMDIWLLLASYIRPEDIVNFSLICKNAWTVTCTAAFWTRLYRRHYTLDASLPLRLRPESMEKLRCLRACVIRSLYHMYEPFAARISKNPAIPESTPSTLKNSK
soluble on expression in E. coli: not soluble

MSHAVSRLRDLRMARVAKPFFARGSRAERCPRCRVIPSHCLCAWRPKVVARSAMCLVMHDVEPLKPSNTGWLIADVIGDTTAFSWSRTEVDPQLLALLADPQWQPYIVFPGEFVAPERVVSEVRQEEGKRPLFILLDATWSEARKMFRKSPYLEHLPVLSLSPEKLSRYKLRRSKRDDHFCTAEVAALCLELAGDEQVSQVLDAYLDVFSTHYLSAKFQKAIDPDDDVHARLKPFVLEHHHHHH
soluble on expression in E. coli: not soluble

MGSDKIHHHHHHMVLSGSPYERGFQHGNRFADLISQALDRRLASLSAADLSQAHKRASDVLATIDVMAPHVGTELRGIADGAGREVSGIVLRSSFELLASPTATGCSGLAVQTRDGALIAQNWDGPLGSDVEQALFIHVGTSGFEFATVAAVGALGWVGFNRAGFGFVNNDLVLKSRCDGIPSQIVRRVFLGCPDVNAAVEAAKSLPHMAGRAYLFGDASNKIASIEVSARHGVSVCRSGSFLAHTNHALNDQIRADEDAELLARQYPSSQKRLEVLKMREAGCADACEVMDILRDRTNAPDSVCKQTSLREPTQTAFSVVMQCRNRTLFLVRGMPSATEYQRISL
soluble on expression in E. coli: not soluble

MGSDKIHHHHHHMNSIQLKAVSFSREQPLFEKTNLAIPQGTFSLLIGDSGSGKSTLLRLIAGFAPLDYQGEILIEGMERRQLSTREKAQKIGMLFQNPSQQFTMKTLERELIFALENLGIPPEEMNRKIQTALQLVQTQTLFTRELATLSGGEKQKAALTVLLAMNPDILLLDEPFASIDPTSRKQFIQILARLHQAGKTILVCDHDFSDYADVVDQVVTLKNGQFEKQPLTFIKTKPQTFQLTTSVVKQPMLQLKNFRLSQGKRVLLEEKEALLFKGITTLTGPNGAGKSTLLKAIVQRQKYQGKMFLAGRRLRASKKLYQHMTLAVQQANRQFVTLTLREELLFGQNMTAEKRRKQEEALTFLGLKEKLEHSVFQLSEGQKKMVQLISLLSLDLDCLLLDEPFAGLDERACNYFVEWIKEKSAQQDFLIVTHRLEPLSGVSNYRIELLQQQLIIWQEGTTCK
soluble on expression in E. coli: not soluble

MGSSHHHHHHSSGLVPRGSHMKKNSLALSLTADQMVSALLDAEPPILYSEYDPTRPFSEASMMGLLTNLADRELVHMINWAKRVPGFVDLTLHDQVHLLECAWLEILMIGLVWRSMEHPVKLLFAPNLLLDRNQGKCVEGMVEIFDMLLATSSRFRMMNLQGEEFVCLKSIILLNSGVYTFLSSTLKSLEEKDHIHRVLDKITDTLIHLMAKAGLTLQQQHQRLAQLLLILSHIRHMSNKGMEHLYSMKCKNVVPLYDLLLEMLDAHRLHAP
soluble on expression in E. coli: not soluble

MIKIGVITMALLSFLNAGWFSLLFGSNPDPISIPIDLSQAGSVVEREVKIEETWAYDLFLEFAVLDRKEDGGLDGKKVRKFLGFNSYNPYDGKKLGFGDYEQAKRKLGDLIDETYDCDGTIAPIKLTIHQINKDNTKKLIVDNLYMTKGYSSGAYERDIAIISLDKGKYIFRIENIEAFQEMNARKVNFIIRIHKRDK
soluble on expression in E. coli: not soluble

MEKLLIEGGRALNGTIRVSGAKNSAVALIPATILADTPVTIGGVPNISDVKMLGDLLEEIGGRVTYGQEEEMVVDPSNMVAMPLPNGKVKKLRASYYLMGAMLGRFKKAVIGLPGGCHLGPRPIDQHIKGFEALGAHVTNEQGAIYLRADELRGARIYLDVVSVGATINIMLAAVRAKGRTVIENAAKEPEIIDVATLLTSMGARIKGAGTDVIRIDGVDSLHGCHHTIIPDRIEAGTYMILGAASGGEVTVDNVIPQHLESVTAKLREAGVQVETNDDQITVNGDRRLKVVDIKTLVYPGFPTDLQQPFTTLLTKAHGTGVVTDTIYGARFKHIDELRRMNAQIKVEGRSAIVTGPVLLQGAKVKASDLRAGAALVIAGLMADGITEVTGLEHIDRGYENIVDKLKGLGANIWREQMTKQEIEEMKNA
soluble on expression in E. coli: not soluble

MSLANNKISQTTKKLSQIFNSEKQPAVFFDKNVSTIEENNSLLDGQTDVPVLDPHDLLVEVQAVSVNPVDTKLRQTGVASKIKILGYDAFGIVKNTGKDVTRFHAGDRVYYAGTTQRPGSNEKFQAVDERLVGRAPEKLNKSEIAAMPLTSITAYEILVDQLGLRFQNHAADGKNMLVINGAGGVGSVLLQMAAYLGINLSVTAHSSESIEWLKKYSVDKIYDYENIDETLADQKFDYIVFLYDPALYWDIAIKHIKPYGQLVSIVGTNKPLNMGPLKNIAVQFKWEYMFAKSDFNHNILSQGQALDKIAILLDAGILKTTLNKTFDLINAENLRQAYKLVESGRMQGKVVLNGEGHHHHHH
soluble on expression in E. coli: not soluble

MTEFYSDTIGLPKTDPRLWRLRTDELGRESWEYLTPQQAANDPPSTFTQWLLQDPKFPQPHPERNKHSPDFSAFDACHNGASFFKLLQEPDSGIFPCQYKGPMFMTIGYVAVNYIAGIEIPEHERIELIRYIVNTAHPVDGGWGLHSVDKSTVFGTVLNYVILRLLGLPKDHPVCAKARSTLLRLGGAIGSPHWGKIWLSALNLYKWEGVNPAPPETWLLPYSLPMHPGRWWVHTRGVYIPVSYLSLVKFSCPMTPLLEELRNEIYTKPFDKINFSKNRNTVCGVDLYYPHSTTLNIANSLVVFYEKYLRNRFIYSLSKKKVYDLIKTELQNTDSLCIAPVNQAFCALVTLIEEGVDSEAFQRLQYRFKDALFHGPQGMTIMGTNGVQTWDCAFAIQYFFVAGLAERPEFYNTIVSAYKFLCHAQFDTECVPGSYRDKRKGAWGFSTKTQGYTVADCTAEAIKAIIMVKNSPVFSEVHHMISSERLFEGIDVLLNLQNIGSFEYGSFATYEKIKAPLAMETLNPAEVFGNIMVEYPYVECTDSSVLGLTYFHKYFDYRKEEIRTRIRIAIEFIKKSQLPDGSWYGSWGICFTYAGMFALEALHTVGETYENSSTVRKGCDFLVSKQMKDGGWGESMKSSELHSYVDSEKSLVVQTAWALIALLFAEYPNKEVIDRGIDLLKNRQEESGEWKFESVEGVFNHSCAIEYPSYRFLFPIKALGMYSRAYETHTL
soluble on expression in E. coli: soluble
